# Like-named read-outs stand apart in the source and are kept apart here. Starred links: 1 amine or outer side, 2 acyl side, 3 side chain; linkers in the order of their positions; H or OH if unused. Positions of bridges follow the written chain, without caps; N, C: chain ends. Non-standard residues stand in square brackets, D forms with d. No end group written: not given here. Ser(Bzl) = O-benzyl-serine, O=C([C@H](COCc1ccccc1)N[*:1])[*:2]; dPhe(4-Cl) = N[C@H](Cc1ccc(Cl)cc1)C(=O)O; 1Nal = N[C@@H](Cc1cccc2ccccc12)C(=O)O; 2Nal = N[C@@H](Cc1ccc2ccccc2c1)C(=O)O; d2Nal = N[C@H](Cc1ccc2ccccc2c1)C(=O)O; Nle = CCCC[C@H](N)C(=O)O; Ahp = NCCCCCCC(=O)O
# Key:
# [1] = target: T1, human melanocortin 3 receptor (human, UniProt P41968 1-323); experiment: radioligand competition, [I125]-NDP-α-MSH, hMC3-R membranes
# T1 construct: whole, on cells; also called hMC3-R; MC3-R
# T1 sequence (P41968 whole entry): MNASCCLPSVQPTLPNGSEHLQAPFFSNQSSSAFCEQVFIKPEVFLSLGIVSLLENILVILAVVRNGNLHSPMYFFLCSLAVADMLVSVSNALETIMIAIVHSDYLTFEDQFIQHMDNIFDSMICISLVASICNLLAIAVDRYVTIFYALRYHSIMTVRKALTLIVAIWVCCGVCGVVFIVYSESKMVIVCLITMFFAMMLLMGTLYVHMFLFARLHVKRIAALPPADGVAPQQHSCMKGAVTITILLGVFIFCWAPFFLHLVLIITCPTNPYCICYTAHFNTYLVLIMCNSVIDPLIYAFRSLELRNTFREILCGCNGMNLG
# [2] = target: T2, human melanocortin 4 receptor (human, UniProt P32245 1-332); experiment: radioligand competition, [I125]-NDP-α-MSH, hMC4-R membranes
# T2 construct: whole, on cells; cAMP assays used whole cells; also called hMC4-R; MC4-R
# T2 sequence (P32245 whole entry): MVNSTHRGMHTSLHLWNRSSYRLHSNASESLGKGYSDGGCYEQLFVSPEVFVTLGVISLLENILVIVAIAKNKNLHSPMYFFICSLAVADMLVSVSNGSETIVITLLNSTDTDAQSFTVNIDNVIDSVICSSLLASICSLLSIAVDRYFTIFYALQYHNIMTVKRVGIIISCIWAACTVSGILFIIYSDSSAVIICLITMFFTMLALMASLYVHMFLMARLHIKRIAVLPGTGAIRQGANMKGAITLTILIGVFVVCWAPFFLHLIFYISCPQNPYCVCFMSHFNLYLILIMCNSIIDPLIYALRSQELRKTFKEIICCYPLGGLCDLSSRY
# [3] = target: T3, MC1-R of B-16 mouse melanoma cells (mouse, UniProt Q01727 1-315); experiment: radioligand competition, [I125]-NDP-α-MSH, B-16 membranes
# T3 construct: whole, on cells; also called B16-F10 (MC1-R)
# T3 sequence (Q01727 whole entry): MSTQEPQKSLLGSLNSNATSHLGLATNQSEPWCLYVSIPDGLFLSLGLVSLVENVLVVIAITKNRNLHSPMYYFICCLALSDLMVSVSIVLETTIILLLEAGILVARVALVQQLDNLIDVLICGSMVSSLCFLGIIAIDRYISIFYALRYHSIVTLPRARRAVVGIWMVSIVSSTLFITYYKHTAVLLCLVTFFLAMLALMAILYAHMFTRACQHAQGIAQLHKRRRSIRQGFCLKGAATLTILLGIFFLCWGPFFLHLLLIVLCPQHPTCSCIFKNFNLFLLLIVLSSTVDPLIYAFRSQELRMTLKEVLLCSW
# [4] = target: T4, human melanocortin 5 receptor (human, UniProt P33032 1-325); experiment: radioligand competition, [I125]-NDP-α-MSH, hMC5-R membranes
# T4 construct: whole, on cells; also called hMC5-R; MC5-R
# T4 sequence (P33032 whole entry): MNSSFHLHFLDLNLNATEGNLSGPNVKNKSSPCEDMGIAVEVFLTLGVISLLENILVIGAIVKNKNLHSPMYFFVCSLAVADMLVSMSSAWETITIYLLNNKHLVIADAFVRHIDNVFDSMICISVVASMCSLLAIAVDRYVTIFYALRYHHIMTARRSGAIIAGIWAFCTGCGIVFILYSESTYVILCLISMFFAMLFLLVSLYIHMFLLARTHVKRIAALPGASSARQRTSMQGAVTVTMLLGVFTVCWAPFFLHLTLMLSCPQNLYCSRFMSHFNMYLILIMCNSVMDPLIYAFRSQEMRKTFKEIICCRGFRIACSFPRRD
# [5] = target: T2, human melanocortin 4 receptor; experiment: cell-based or functional assay
# [6] = target: T2, human melanocortin 4 receptor; experiment: cell-based or functional assay; remark: listed apart in the source
# [7] = target: T3, MC1-R of B-16 mouse melanoma cells; experiment: radioligand competition, [I125]-NDP-α-MSH, B-16 membranes; remark: listed apart in the source
# [8] = target: T2, human melanocortin 4 receptor; experiment: radioligand competition, [I125]-NDP-α-MSH, hMC4-R membranes; remark: listed apart in the source
# [9] = target: T4, human melanocortin 5 receptor; experiment: radioligand competition, [I125]-NDP-α-MSH, hMC5-R membranes; remark: listed apart in the source
# [10] = target: T1, human melanocortin 3 receptor; experiment: radioligand competition, [I125]-NDP-α-MSH, hMC3-R membranes; remark: listed apart in the source
# [11] = target: T2, human melanocortin 4 receptor; experiment: cell-based or functional assay; remark: listed apart in the source
# [12] = target: T2, human melanocortin 4 receptor; experiment: cell-based or functional assay; remark: listed apart in the source
# [13] = target: T4, human melanocortin 5 receptor; experiment: radioligand competition, [I125]-NDP-α-MSH, hMC5-R membranes; remark: listed apart in the source
# [14] = target: T2, human melanocortin 4 receptor; experiment: radioligand competition, [I125]-NDP-α-MSH, hMC4-R membranes; remark: listed apart in the source
# [15] = target: T3, MC1-R of B-16 mouse melanoma cells; experiment: radioligand competition, [I125]-NDP-α-MSH, B-16 membranes; remark: listed apart in the source
# [16] = target: T1, human melanocortin 3 receptor; experiment: radioligand competition, [I125]-NDP-α-MSH, hMC3-R membranes; remark: listed apart in the source
# [17] = target: T2, human melanocortin 4 receptor; experiment: radioligand competition, [I125]-NDP-α-MSH, hMC4-R membranes; remark: listed apart in the source
# [18] = target: T1, human melanocortin 3 receptor; experiment: radioligand competition, [I125]-NDP-α-MSH, hMC3-R membranes; remark: listed apart in the source
# [19] = target: T4, human melanocortin 5 receptor; experiment: radioligand competition, [I125]-NDP-α-MSH, hMC5-R membranes; remark: listed apart in the source
# human MC1-R = target: T5, human MC1-R (human, UniProt Q01726 1-317); experiment: radioligand competition, NDP-α-MSH, human MC1-R, normal system
# T5 construct: whole, on cells; Used in separate experiments for Ki with NDP-α-MSH; the source of the membranes is not described; also called hMC1-R
# T5 sequence (Q01726 whole entry): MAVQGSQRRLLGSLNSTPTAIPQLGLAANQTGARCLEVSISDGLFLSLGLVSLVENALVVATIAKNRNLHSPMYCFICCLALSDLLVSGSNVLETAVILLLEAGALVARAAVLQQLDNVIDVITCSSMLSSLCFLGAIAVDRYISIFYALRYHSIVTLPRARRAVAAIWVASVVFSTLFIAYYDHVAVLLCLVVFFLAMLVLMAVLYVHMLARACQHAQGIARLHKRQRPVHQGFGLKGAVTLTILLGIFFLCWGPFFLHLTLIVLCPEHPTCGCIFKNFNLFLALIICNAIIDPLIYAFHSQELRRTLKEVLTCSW
# [20] = target: T3, MC1-R of B-16 mouse melanoma cells; experiment: radioligand competition, [I125]-NDP-α-MSH, B-16 membranes; remark: listed apart in the source
# [21] = target: T2, human melanocortin 4 receptor; experiment: cell-based or functional assay; remark: listed apart in the source
# [22] = target: T2, human melanocortin 4 receptor; experiment: radioligand competition, [I125]-NDP-α-MSH, hMC4-R membranes; remark: listed apart in the source
# [23] = target: T1, human melanocortin 3 receptor; experiment: radioligand competition, [I125]-NDP-α-MSH, hMC3-R membranes; remark: listed apart in the source
# [24] = target: T2, human melanocortin 4 receptor; experiment: cell-based or functional assay; remark: listed apart in the source
# [25] = target: T4, human melanocortin 5 receptor; experiment: radioligand competition, [I125]-NDP-α-MSH, hMC5-R membranes; remark: listed apart in the source
# [26] = target: T3, MC1-R of B-16 mouse melanoma cells; experiment: radioligand competition, [I125]-NDP-α-MSH, B-16 membranes; remark: listed apart in the source
# [27] = target: T2, human melanocortin 4 receptor; experiment: cell-based or functional assay; remark: listed apart in the source
# [28] = target: T1, human melanocortin 3 receptor; experiment: radioligand competition, [I125]-NDP-α-MSH, hMC3-R membranes; remark: listed apart in the source
# [29] = target: T4, human melanocortin 5 receptor; experiment: radioligand competition, [I125]-NDP-α-MSH, hMC5-R membranes; remark: listed apart in the source
# [30] = target: T3, MC1-R of B-16 mouse melanoma cells; experiment: radioligand competition, [I125]-NDP-α-MSH, B-16 membranes; remark: listed apart in the source
# [31] = target: T2, human melanocortin 4 receptor; experiment: radioligand competition, [I125]-NDP-α-MSH, hMC4-R membranes; remark: listed apart in the source
# [32] = target: T1, human melanocortin 3 receptor; experiment: radioligand competition, [I125]-NDP-α-MSH, hMC3-R membranes; remark: listed apart in the source
# [33] = target: T2, human melanocortin 4 receptor; experiment: radioligand competition, [I125]-NDP-α-MSH, hMC4-R membranes; remark: listed apart in the source
# [34] = target: T3, MC1-R of B-16 mouse melanoma cells; experiment: radioligand competition, [I125]-NDP-α-MSH, B-16 membranes; remark: listed apart in the source
# [35] = target: T4, human melanocortin 5 receptor; experiment: radioligand competition, [I125]-NDP-α-MSH, hMC5-R membranes; remark: listed apart in the source
# [36] = target: T2, human melanocortin 4 receptor; experiment: cell-based or functional assay; remark: listed apart in the source
# [37] = target: T1, human melanocortin 3 receptor; experiment: radioligand competition, [I125]-NDP-α-MSH, hMC3-R membranes; remark: listed apart in the source
# [38] = target: T2, human melanocortin 4 receptor; experiment: radioligand competition, [I125]-NDP-α-MSH, hMC4-R membranes; remark: listed apart in the source
# [39] = target: T3, MC1-R of B-16 mouse melanoma cells; experiment: radioligand competition, [I125]-NDP-α-MSH, B-16 membranes; remark: listed apart in the source
# [40] = target: T2, human melanocortin 4 receptor; experiment: cell-based or functional assay; remark: listed apart in the source
# [41] = target: T3, MC1-R of B-16 mouse melanoma cells; experiment: radioligand competition, [I125]-NDP-α-MSH, B-16 membranes; remark: listed apart in the source
# [42] = target: T4, human melanocortin 5 receptor; experiment: radioligand competition, [I125]-NDP-α-MSH, hMC5-R membranes; remark: listed apart in the source
# [43] = target: T2, human melanocortin 4 receptor; experiment: radioligand competition, [I125]-NDP-α-MSH, hMC4-R membranes; remark: listed apart in the source
# [44] = target: T1, human melanocortin 3 receptor; experiment: radioligand competition, [I125]-NDP-α-MSH, hMC3-R membranes; remark: listed apart in the source
binder,measurement,setting,value
"[Ahp][Ser(Bzl)][dPhe(4-Cl)]RW-NH2 (N-terminus assumed; SMILES N=C(N)NCCC[C@H](NC(=O)[C@@H](Cc1ccc(Cl)cc1)NC(=O)[C@H](COCc1ccccc1)NC(=O)CCCCCCN)C(=O)N[C@@H](Cc1c[nH]c2ccccc12)C(N)=O, also called Compound No. 1) [NH2-(CH2)6-C(=O)-Ser(Bzl)-(D)Phe(4-Cl)-Arg-Trp-NH2]",Ki,[1],27 nM
same,Ki,[2],3 nM
same,Ki,[3],351 nM
same,Ki,[4],208 nM
same,"EC50 (nM) (cAMP), High Receptor Density System",[5],21 nM
same,EC50 (nM) at MC4-R in a normal system (cAMP),[6],296 nM
same,"intrinsic activity, normal system (cAMP)",[6],0.32
"[Ahp][Ser(Bzl)][dPhe(4-Cl)]RWD-NH2 (N-terminus assumed; SMILES N=C(N)NCCC[C@H](NC(=O)[C@@H](Cc1ccc(Cl)cc1)NC(=O)[C@H](COCc1ccccc1)NC(=O)CCCCCCN)C(=O)N[C@@H](Cc1c[nH]c2ccccc12)C(=O)N[C@@H](CC(=O)O)C(N)=O, also called Compound No. 13) [NH2-(CH2)6-C(=O)-Ser(Bzl)-D-Phe(4-Cl)-Arg-Trp-Asp-NH2]",Ki,[7],760 nM
same,Ki,[8],9 nM
same,Ki,[9],596 nM
same,Ki,[10],180 nM
same,"EC50 (nM) (cAMP), High Receptor Density System",[11],34 nM
same,"EC50 (nM), normal system (cAMP)",[6],568 nM
same,"intrinsic activity, normal system (cAMP)",[6],0.5
"[Ahp][Ser(Bzl)][dPhe(4-Cl)]RWDF-NH2 (N-terminus assumed; SMILES N=C(N)NCCC[C@H](NC(=O)[C@@H](Cc1ccc(Cl)cc1)NC(=O)[C@H](COCc1ccccc1)NC(=O)CCCCCCN)C(=O)N[C@@H](Cc1c[nH]c2ccccc12)C(=O)N[C@@H](CC(=O)O)C(=O)N[C@@H](Cc1ccccc1)C(N)=O, also called Compound No. 14) [NH2-(CH2)6-C(=O)-Ser(Bzl)-D-Phe(4-Cl)-Arg-Trp-Asp-Phe-NH2]","EC50 (nM) (cAMP), High Receptor Density System",[12],141 nM
same,Ki,[13],405 nM
same,Ki,[14],5 nM
same,Ki,[15],242 nM
same,Ki,[16],76 nM
same,"EC50, normal system (cAMP)",[6],238 nM
same,"intrinsic activity, normal system (cAMP)",[6],0.5
"Ac-[Nle]DW[dF]R[1Nal]K-NMe2 (lactam 2-7, also called Compound No. 36) [Ac-Nle-cyclo(-Asp-Trp-D-Phe-Arg-Nal 1-Lys)-N(CH3)2]",Ki,[17],38 nM
same,Ki,[18],231 nM
same,Ki,[19],31 nM
same,Ki,human MC1-R,39 nM
same,Ki,[20],12 nM
same,"EC50 (nM) (cAMP), High Receptor Density System",[21],4 nM
same,"EC50 (nM), normal system (cAMP)",[6],272 nM
same,"intrinsic activity, normal system (cAMP)",[6],0.8
"XDHFRXK (N-terminal acetyl; Nle at 1 (X); D-Phe at 4; Nal 1 at 6 (X); cyclo(Asp 2 to Lys 7); C-terminal dimethylamide -N(CH3)2, also called Compound No. 37) [Ac-Nle-cyclo(-Asp-His-D-Phe-Arg-Nal 1-Lys)-N(CH3)2]",Ki,[22],5 nM
same,Ki,[23],111 nM
same,Ki,human MC1-R,0.08 nM
same,"EC50 (nM) (cAMP), High Receptor Density System",[24],0.6 nM
same,"EC50 (nM) (cAMP), Low Receptor Density System",[24],2.1 nM
same,Ki,[25],50 nM
same,Ki,[26],0.39 nM
same,"EC50 (nM), normal system (cAMP)",[6],44 nM
same,"intrinsic activity, normal system (cAMP)",[6],0.7
"XDHFRXK (N-terminal acetyl; Nle at 1 (X); D-Phe at 4; Nal 1 at 6 (X); cyclo(Asp 2 to Lys 7); C-terminal ethylamide -NH-CH2-CH3, also called Compound No. 39) [Ac-Nle-cyclo(-Asp-His-D-Phe-Arg-Nal 1-Lys)-NH-CH2-CH3]","EC50 (nM) (cAMP), High Receptor Density System",[27],1.1 nM
same,"EC50 (nM) (cAMP), Low Receptor Density System",[27],10 nM
same,Ki,[28],28 nM
same,Ki,[29],63 nM
same,Ki,human MC1-R,0.04 nM
same,Ki,[30],0.07 nM
same,Ki,[31],2 nM
same,"EC50 (nM), normal system (cAMP)",[6],0.2 nM
same,"intrinsic activity, normal system (cAMP)",[6],0.6
"Ac-[Nle]DW[dF]R[1Nal]K-NHEt (lactam 2-7; SMILES CCCC[C@H](NC(C)=O)C(=O)N[C@H]1CC(=O)NCCCC[C@@H](C(=O)NCC)NC(=O)[C@H](Cc2cccc3ccccc23)NC(=O)[C@H](CCCNC(=N)N)NC(=O)[C@@H](Cc2ccccc2)NC(=O)[C@H](Cc2c[nH]c3ccccc23)NC1=O, also called Compound No. 38) [Ac-Nle-cyclo(-Asp-Trp-D-Phe-Arg-Nal 1-Lys)-NH-CH2-CH3]",Ki,[32],77 nM
same,Ki,[33],9 nM
same,Ki,[34],4.2 nM
same,Ki,[35],47 nM
same,Ki,human MC1-R,30 nM
same,"EC50 (nM) (cAMP), High Receptor Density System",[36],10 nM
same,"EC50 (nM), normal system (cAMP)",[6],120 nM
same,"intrinsic activity, normal system (cAMP)",[6],0.6
"Ac-DH[dF]RWK-NHEt (lactam 1-6, also called Compound No. 40) [Ac-cyclo(-Asp-His-D-Phe-Arg-Trp-Lys)-NH-CH2-CH3]",Ki,[37],84 nM
same,Ki,[38],6 nM
same,Ki,[39],5 nM
same,"EC50 (nM) (cAMP), Low Receptor Density System",[40],3.1 nM
same,Ki,human MC1-R,0.52 nM
same,"EC50 (nM), normal system (cAMP)",[6],3 nM
same,"intrinsic activity, normal system (cAMP)",[6],0.6
"Ac-DW[d2Nal]R[2Nal]K-NHMe (lactam 1-6, also called Compound No. 35) [Ac-cyclo(Asp-Trp-D-Nal 2-Arg-Nal 2-Lys)-NH-CH3]",Ki,[41],643 nM
same,Ki,[42],6 nM
same,Ki,[43],0.06 nM
same,Ki,[44],3 nM

# From patent US20090081197A1 (PALATIN TECHNOLOGIES, published 2009)
